B1: Protein FAM13C (Homo sapiens), Q8NE31 (parent)
chain: MFSCFCFSLQDNSFSSTTVTECDEDPVSLHEDQTDCSSLRDENNKENYPDAGALVEEHAPPSWEPQQQNVEATVLVDSVLRPSMGNFKSRKPKSIFKAESGRSHGESQETEHVVSSQSECQVRAGTPAHESPQNNAFKCQETVRLQPRIDQRTAISPKDAFETRQDLNEEEAAQVHGVKDPAPASTQSVLADGTDSADPSPVHKDGQNEADSAPEDLHSVGTSRLLYHITDGDNPLLSPRCSIFSQSQRFNLDPESAPSPPSTQQFMMPRSSSRCSCGDGKEPQTITQLTKHIQSLKRKIRKFEEKFEQEKKYRPSHGDKTSNPEVLKWMNDLAKGRKQLKELKLKLSEEQGSAPKGPPRNLLCEQPTVPRENGKPEAAGPEPSSSGEETPDAALTCLKERREQLPPQEDSKVTKQDKNLIKPLYDRYRIIKQILSTPSLIPTIQEEEDSDEDRPQGSQQPSLADPASHLPVGDHLTYSNETEPVRALLPDEKKEVKPPALSMSNLHEATMPVLLDHLRETRADKKRLRKALREFEEQFFKQTGRSPQKEDRIPMADEYYEYKHIKAKLRLLEVLISKQDVAKTI
partner: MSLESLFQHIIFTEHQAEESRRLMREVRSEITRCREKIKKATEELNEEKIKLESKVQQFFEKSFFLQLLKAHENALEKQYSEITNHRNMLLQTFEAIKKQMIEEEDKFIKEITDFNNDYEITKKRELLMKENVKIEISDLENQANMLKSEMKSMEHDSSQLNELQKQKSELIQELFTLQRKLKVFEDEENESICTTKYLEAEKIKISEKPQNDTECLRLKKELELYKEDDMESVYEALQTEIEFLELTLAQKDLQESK
B2: Protein Dr1 (Homo sapiens), Q01658 (parent)
chain: MASSSGNDDDLTIPRAAINKMIKETLPNVRVANDARELVVNCCTEFIHLISSEANEICNKSEKKTISPEHVIQALESLGFGSYISEVKEVLQECKTVALKRRKASSRLENLGIPEEELLRQQQELFAKARQQQAELAQQEWLQMQQAAQQAQLAAASASASNQAGSSQDEEDDDDI
B3: pre-mRNA splicing regulator USH1G (Homo sapiens), Q495M9 (parent)
chain: MNDQYHRAARDGYLELLKEATRKELNAPDEDGMTPTLWAAYHGNLESLRLIVSRGGDPDKCDIWGNTPLHLAASNGHLHCLSFLVSFGANIWCLDNDYHTPLDMAAMKGHMECVRYLDSIAAKQSSLNPKLVGKLKDKAFREAERRIRECAKLQRRHHERMERRYRRELAERSDTLSFSSLTSSTLSRRLQHLALGSHLPYSQATLHGTARGKTKMQKKLERRKQGGEGTFKVSEDGRKSARSLSGLQLGSDVMFVRQGTYANPKEWGRAPLRDMFLSDEDSVSRATLAAEPAHSEVSTDSGHDSLFTRPGLGTMVFRRNYLSSGLHGLGREDGGLDGVGAPRGRLQSSPSLDDDSLGSANSLQDRSCGEELPWDELDLGLDEDLEPETSPLETFLASLHMEDFAALLRQEKIDLEALMLCSDLDLRSISVPLGPRKKILGAVRRRRQAMERPPALEDTEL
partner: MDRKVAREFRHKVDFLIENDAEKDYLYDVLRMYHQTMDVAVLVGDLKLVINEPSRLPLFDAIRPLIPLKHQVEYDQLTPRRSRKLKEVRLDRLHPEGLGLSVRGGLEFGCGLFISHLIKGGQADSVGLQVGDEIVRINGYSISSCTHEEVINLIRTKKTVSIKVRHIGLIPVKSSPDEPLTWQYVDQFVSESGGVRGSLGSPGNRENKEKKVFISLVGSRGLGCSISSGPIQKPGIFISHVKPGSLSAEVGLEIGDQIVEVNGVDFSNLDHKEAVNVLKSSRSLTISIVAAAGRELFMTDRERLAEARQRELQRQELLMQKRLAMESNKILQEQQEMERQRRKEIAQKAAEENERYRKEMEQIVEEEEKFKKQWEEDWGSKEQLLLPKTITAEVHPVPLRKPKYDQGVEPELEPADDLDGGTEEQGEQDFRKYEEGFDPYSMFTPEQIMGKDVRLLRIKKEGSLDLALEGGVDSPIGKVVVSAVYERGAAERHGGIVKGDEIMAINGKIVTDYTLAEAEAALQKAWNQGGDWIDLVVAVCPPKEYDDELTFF
B4: Oxidative stress-induced growth inhibitor 1 (Homo sapiens), Q9UJX0 (parent)
chain: MSSSRKDHLGASSSEPLPVIIVGNGPSGICLSYLLSGYTPYTKPDAIHPHPLLQRKLTEAPGVSILDQDLDYLSEGLEGRSQSPVALLFDALLRPDTDFGGNMKSVLTWKHRKEHAIPHVVLGRNLPGGAWHSIEGSMVILSQGQWMGLPDLEVKDWMQKKRRGLRNSRATAGDIAHYYRDYVVKKGLGHNFVSGAVVTAVEWGTPDPSSCGAQDSSPLFQVSGFLTRNQAQQPFSLWARNVVLATGTFDSPARLGIPGEALPFIHHELSALEAATRVGAVTPASDPVLIIGAGLSAADAVLYARHYNIPVIHAFRRAVDDPGLVFNQLPKMLYPEYHKVHQMMREQSILSPSPYEGYRSLPRHQLLCFKEDCQAVFQDLEGVEKVFGVSLVLVLIGSHPDLSFLPGAGADFAVDPDQPLSAKRNPIDVDPFTYQSTRQEGLYAMGPLAGDNFVRFVQGGALAVASSLLRKETRKPP
partner: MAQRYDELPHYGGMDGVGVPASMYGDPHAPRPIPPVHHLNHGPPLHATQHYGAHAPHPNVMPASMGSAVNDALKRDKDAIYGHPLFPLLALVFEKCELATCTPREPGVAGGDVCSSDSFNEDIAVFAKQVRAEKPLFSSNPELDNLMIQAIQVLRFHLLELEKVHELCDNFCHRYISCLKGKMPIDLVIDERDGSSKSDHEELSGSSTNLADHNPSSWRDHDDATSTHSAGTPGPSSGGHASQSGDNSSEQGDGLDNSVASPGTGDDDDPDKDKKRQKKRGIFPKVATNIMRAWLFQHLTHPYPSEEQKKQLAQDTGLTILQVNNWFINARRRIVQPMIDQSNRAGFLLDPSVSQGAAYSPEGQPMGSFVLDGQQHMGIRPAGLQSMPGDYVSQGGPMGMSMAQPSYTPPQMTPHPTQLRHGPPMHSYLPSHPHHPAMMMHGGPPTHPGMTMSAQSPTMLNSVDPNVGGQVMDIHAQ
B5: Synaptotagmin-16 (Homo sapiens), Q17RD7 (parent)
chain: MVLAMASQDVQNFFQPFSSWISRVYEALQQAGDMLSASLVNISKQDSKLSDKLDQDLDNIQIQETYFEDEEQDNDWSQEDANSLFLEVDHFSCCNSDLQDSAQNSSPSLSQHAKDSCSTMSQWPNWASDDRKLPHVLSSIAEEEHHLEKQRSGLQHGFDSQLPGTLETVNGKKQVNSFGDDEELSTSSDSDEEVIKQFEISVSRSQSFRSVTSEKGKQTGLEQKPKFSRSLLTHGEDGTEVSACEDLDGASQRRYSENLSYGEDDHIPAHSQSPCERGDAKHHGTSHQESSVVQSLRRQSTEGSLEMETAFNSRGFEDSYATDSSSMWSPEEQDRTNLQVPSGVSEPISKCGDLDVIFEYRAASQKLTVTIVRAQGLPDKDRSGVNSWQVHVVLLPGKKHRGRTNIQRGPNPVFREKVTFAKLEPRDVAACAVRFRLYAARKMTRERMMGEKLFYLSHLHPEGEMKVTLVLEPRSNISSGGSPLSPSAVSHSDSTSSTQSLSHGGAPELLVGLSYNATTGRLSVEMIKGSHFRNLAVNRAPDTYGKLFLLNSVGQEMSRCKTSIRRGQPNPVYKETFVFQVALFQLSDVTLMISVYNRRTMKRKEMIGWIALGQNSSGEEEQDHWEEMKETKGQQICRWHTLLES

In one experiment the parent is B1. Particulars: with cc172_human CCDC172, P0C7W6.
For the variant P147S, the “effect of a mutation on the interaction” value was “with no effect”.

In a further experiment the parent is B2. Particulars: with dpoe3_human POLE3, Q9NRF9.
dpoe3_human POLE3, Q9NRF9, sequence (Q9NRF9 whole entry): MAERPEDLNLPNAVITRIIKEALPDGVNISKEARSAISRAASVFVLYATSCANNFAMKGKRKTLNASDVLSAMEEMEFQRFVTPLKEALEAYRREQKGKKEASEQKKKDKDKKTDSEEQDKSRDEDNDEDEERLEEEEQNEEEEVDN
For E171D, the “effect of a mutation on the interaction” value is given as “with no effect”.

A further experiment covers variants of B2. Particulars: with tbp_human TBP.
In the case of E171D, the “effect of a mutation on the interaction” value is listed as “with no effect”.

Variants of B3 are the subject of the next experiment. Particulars: with ush1c_human USH1C.
E393D: the “effect of a mutation on the interaction” value is reported as “with no effect”.
Same read-out and setting: in the case of L48P it was “with no effect”; in that of L420V, “with no effect”.
Turning to L16V, the “effect of a mutation on the interaction” value is on record as “with no effect”.

Another experiment covers variants of B4. Particulars: with meis2_human MEIS2, O14770.
For S236L, the “effect of a mutation on the interaction” value was “with no effect”.
D320N: the “effect of a mutation on the interaction” value was “with no effect”.

In the next experiment the parent is B5. Particulars: with praf1_human RABAC1, Q9UI14.
praf1_human RABAC1, Q9UI14, sequence (Q9UI14 whole entry): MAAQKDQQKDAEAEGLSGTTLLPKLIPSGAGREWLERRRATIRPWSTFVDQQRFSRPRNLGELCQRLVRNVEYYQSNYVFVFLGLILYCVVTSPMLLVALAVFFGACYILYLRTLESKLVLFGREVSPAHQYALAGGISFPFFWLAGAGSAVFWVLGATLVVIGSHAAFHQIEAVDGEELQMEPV
For A536T, the “effect of a mutation on the interaction” value is “with no effect”.

In the next experiment the parent is B5. Particulars: with rtn4_human RTN4, Q9NQC3.
rtn4_human RTN4, Q9NQC3, sequence (Q9NQC3 whole entry): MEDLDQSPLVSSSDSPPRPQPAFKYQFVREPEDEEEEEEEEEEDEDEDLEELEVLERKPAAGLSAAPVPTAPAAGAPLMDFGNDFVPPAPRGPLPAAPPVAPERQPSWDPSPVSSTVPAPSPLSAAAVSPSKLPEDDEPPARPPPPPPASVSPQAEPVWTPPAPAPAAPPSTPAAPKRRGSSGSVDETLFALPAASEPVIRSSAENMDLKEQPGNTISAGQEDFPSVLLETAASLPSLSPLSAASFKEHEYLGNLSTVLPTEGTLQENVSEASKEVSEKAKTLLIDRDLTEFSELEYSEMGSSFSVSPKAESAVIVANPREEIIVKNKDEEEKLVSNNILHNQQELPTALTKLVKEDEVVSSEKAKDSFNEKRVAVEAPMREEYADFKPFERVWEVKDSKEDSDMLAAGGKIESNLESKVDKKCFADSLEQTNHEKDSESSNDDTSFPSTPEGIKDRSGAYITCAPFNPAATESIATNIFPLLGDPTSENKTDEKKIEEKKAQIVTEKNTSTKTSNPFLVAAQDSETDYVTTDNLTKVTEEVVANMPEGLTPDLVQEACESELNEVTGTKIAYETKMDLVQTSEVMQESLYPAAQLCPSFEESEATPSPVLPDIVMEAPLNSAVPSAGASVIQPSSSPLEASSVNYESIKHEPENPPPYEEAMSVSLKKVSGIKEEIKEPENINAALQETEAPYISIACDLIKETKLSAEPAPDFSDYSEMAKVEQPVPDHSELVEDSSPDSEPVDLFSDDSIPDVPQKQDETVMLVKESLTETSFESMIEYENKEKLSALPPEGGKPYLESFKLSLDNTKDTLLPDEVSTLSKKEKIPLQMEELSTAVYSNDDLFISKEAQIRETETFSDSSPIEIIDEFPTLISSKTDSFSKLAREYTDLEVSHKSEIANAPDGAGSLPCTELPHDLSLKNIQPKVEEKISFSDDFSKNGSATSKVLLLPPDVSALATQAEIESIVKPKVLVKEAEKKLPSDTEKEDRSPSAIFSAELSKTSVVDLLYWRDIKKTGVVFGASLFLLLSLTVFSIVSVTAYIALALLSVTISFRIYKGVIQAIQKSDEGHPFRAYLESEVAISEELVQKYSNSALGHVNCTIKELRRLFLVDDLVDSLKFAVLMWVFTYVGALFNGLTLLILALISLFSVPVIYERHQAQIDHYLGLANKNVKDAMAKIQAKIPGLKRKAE
As for A536T, the “effect of a mutation on the interaction” value was “with no effect”.

A further experiment covers variants of B5. Particulars: with atrap_human AGTRAP.
On to A536T, for which the “effect of a mutation on the interaction” value is reported as “with no effect”.

(Values after IntAct's records for PubMed 31515488.)
